Target: alpha-thrombin (UniProt P00734;P00734 P00734:328-363,P00734:364-622)
Test: fluorescence dequenching at 277 nM TAL2, protein ratios 1:1 to 100:1; t1/2 about 30 min at 10-fold excess; 10 mM KCl, 5 mM MgCl2, 12.5 mM Tris acetate pH 6.5

B1: TAL2 beacon with Dabcyl anchor (structured_DNA)
DNA 1: GGTTGGTTTGGTTGGCAACCTCTGCTACGTG
DNA 2: CACGTAGCAG
modifications: anchor 5' NH2-(CH2)6
binding result: binds
